These results are taken from the supplement of paper PMC6755084.

B1: F1*; the commonest letter at each place (parent)
chain: GAGACCGCAACTGAAAAGTTGTTATCACTTGTCGTAAGACACTTTGGATGGGTTGAAGTTCTGCACGTAGAAGCAAAAGGC

Variants of B1 are the subject of this data set. The data set can be described thus: fraction ligated after 30 min (ligated reads / total reads); higher = more ligase activity. Conditions: with F1*sub RNA substrate (template-directed ligation), 42 °C. The protocol:
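Chip-synthesised pool of F1* ligase ribozyme variants (all single and double substitutions, single, double and triple deletions in the catalytic core and GAA bulge, plus designed variants) was transcribed with T7 and reacted as a pool with excess substrate F1*sub for 30 min at 42 C in 50 mM EPPS pH 8.5, 25 mM MgCl2. Ligated and unligated bands were separated by PAGE, barcoded by RT and deep sequenced; fraction ligated = ligated reads / total reads per variant, relative activity = FL / FL of wild type (0.826). Sequences are the DNA template of the ribozyme.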
GAGACCGCAACTGAAAAGTTGTTAGCACTTGTCGTAAGACACTTTGTATGGGTTGAAGTTCTGCACGTAGAAGCAAAAGGC [T25G G47T]: the fraction ligated came out at 0.102.
The value for GAGACCGCAACTGAAAAGTTGTTAGCACTTGTCGTAAGACACTTTGCATGGGTTGAAGTTCTGCACGTAGAAGCAAAAGGC [T25G G47C] was 0.242; that for GAGACCGCAACTGAAAAGTTGTTAGGACTTGTCGTAAGACACTTTGGATGGGTTGAAGTTCTGCACGTAGAAGCAAAAGGC [T25G C26G] was 0.0648; that for GAGACCGCAACTGAAAAGTTGTTAGTACTTGTCGTAAGACACTTTGGATGGGTTGAAGTTCTGCACGTAGAAGCAAAAGGC [T25G C26T] was 0.191.
Consider GAGACCGCAACTGAAAAGTTGTTAGAACTTGTCGTAAGACACTTTGGATGGGTTGAAGTTCTGCACGTAGAAGCAAAAGGC [T25G C26A], for which the fraction ligated is 0.261.
Consider GAGACCGCAACTGAAAAGTTGTTAGCACTTGTCATAAGACACTTTGGATGGGTTGAAGTTCTGCACGTAGAAGCAAAAGGC [T25G G34A], for which the fraction ligated amounted to 0.77.
For the variant GAGACCGCAACTGAAAAGTTGTTAGCACTTGTCCTAAGACACTTTGGATGGGTTGAAGTTCTGCACGTAGAAGCAAAAGGC [T25G G34C], the fraction ligated was 0.737.
With GAGACCGCAACTGAAAAGTTGTTAGCACTTGTCTTAAGACACTTTGGATGGGTTGAAGTTCTGCACGTAGAAGCAAAAGGC [T25G G34T], the fraction ligated was 0.735.
For GAGACCGCAACTGAAAAGTTGTTAGCACTTCTCGTAAGACACTTTGGATGGGTTGAAGTTCTGCACGTAGAAGCAAAAGGC [T25G G31C] the value was 0.0618.
As to GAGACCGCAACTGAAAAGTTGTTAGCACTTTTCGTAAGACACTTTGGATGGGTTGAAGTTCTGCACGTAGAAGCAAAAGGC [T25G G31T], the fraction ligated was 0.0799.
As to GAGACCGCAACTGAAAAGTTGTTAGCACTTATCGTAAGACACTTTGGATGGGTTGAAGTTCTGCACGTAGAAGCAAAAGGC [T25G G31A], the fraction ligated turned out to be 0.0861.
The value for GAGACCGCAACTGAAAAGTTGTTAGCACTTGTTGTAAGACACTTTGGATGGGTTGAAGTTCTGCACGTAGAAGCAAAAGGC [T25G C33T] was 0.704.
On to GAGACCGCAACTGAAAAGTTGTTAGCACTTGTAGTAAGACACTTTGGATGGGTTGAAGTTCTGCACGTAGAAGCAAAAGGC [T25G C33A], for which the fraction ligated was determined as 0.526.
As for GAGACCGCAACTGAAAAGTTGTTAGCACTTGTGGTAAGACACTTTGGATGGGTTGAAGTTCTGCACGTAGAAGCAAAAGGC [T25G C33G], the fraction ligated came out at 0.535.
As to GAGACCGCAACTGAAAAGTTGTTAGCACTTGTCGTATGACACTTTGGATGGGTTGAAGTTCTGCACGTAGAAGCAAAAGGC [T25G A37T], the fraction ligated was found to be 0.808.
With GAGACCGCAACTGAAAAGTTGTTAGCACTTGTCGTAGGACACTTTGGATGGGTTGAAGTTCTGCACGTAGAAGCAAAAGGC [T25G A37G], the fraction ligated was found to be 0.806.
GAGACCGCAACTGAAAAGTTGTTAGCACTTGTCGTACGACACTTTGGATGGGTTGAAGTTCTGCACGTAGAAGCAAAAGGC [T25G A37C]: the fraction ligated amounted to 0.757.
The value for GAGACCGCAACTGAAAAGTTGTTAGCACTTGTCGTAAGACTCTTTGGATGGGTTGAAGTTCTGCACGTAGAAGCAAAAGGC [T25G A41T] was 0.662.
The value for GAGACCGCAACTGAAAAGTTGTTAGCACTTGTCGTAAGACGCTTTGGATGGGTTGAAGTTCTGCACGTAGAAGCAAAAGGC [T25G A41G] was 0.492.
For GAGACCGCAACTGAAAAGTTGTTAGCACTTGTCGTAAGACCCTTTGGATGGGTTGAAGTTCTGCACGTAGAAGCAAAAGGC [T25G A41C] the value was 0.0915; for GAGACCGCAACTGAAAAGTTGTTAGCACCTGTCGTAAGACACTTTGGATGGGTTGAAGTTCTGCACGTAGAAGCAAAAGGC [T25G T29C], 0.385; for GAGACCGCAACTGAAAAGTTGTTAGCACATGTCGTAAGACACTTTGGATGGGTTGAAGTTCTGCACGTAGAAGCAAAAGGC [T25G T29A], 0.773.
With GAGACCGCAACTGAAAAGTTGTTAGCACTTGTCGTAAGACACTTTGGATGGGTTGATGTTCTGCACGTAGAAGCAAAAGGC [T25G A57T], the fraction ligated came to 0.563.
For GAGACCGCAACTGAAAAGTTGTTAGCACTTGTCGTAAGACACTTTGGATGGGTTGACGTTCTGCACGTAGAAGCAAAAGGC [T25G A57C] the value was 0.556.
For GAGACCGCAACTGAAAAGTTGTTAGCACTTGTCGTAAGACACTTTGGATGGGTTGAGGTTCTGCACGTAGAAGCAAAAGGC [T25G A57G], the fraction ligated was found to be 0.703.
Consider GAGACCGCAACTGAAAAGTTGTTAGCACTTGTCGTGAGACACTTTGGATGGGTTGAAGTTCTGCACGTAGAAGCAAAAGGC [T25G A36G], for which the fraction ligated turned out to be 0.795.
For the variant GAGACCGCAACTGAAAAGTTGTTAGCACTTGTCGTTAGACACTTTGGATGGGTTGAAGTTCTGCACGTAGAAGCAAAAGGC [T25G A36T], the fraction ligated was determined as 0.795.
For GAGACCGCAACTGAAAAGTTGTTAGCACTTGTCGTCAGACACTTTGGATGGGTTGAAGTTCTGCACGTAGAAGCAAAAGGC [T25G A36C] the value was 0.77.
For GAGACCGCAACTGAAAAGTTGTTAGCACTTGTCGTAAGACACTTTGGTTGGGTTGAAGTTCTGCACGTAGAAGCAAAAGGC [T25G A48T] the value was 0.818; for GAGACCGCAACTGAAAAGTTGTTAGCACTTGTCGTAAGACACTTTGGCTGGGTTGAAGTTCTGCACGTAGAAGCAAAAGGC [T25G A48C], 0.819; for GAGACCGCAACTGAAAAGTTGTTAGCACTTGTCGTAAGACACTTTGGGTGGGTTGAAGTTCTGCACGTAGAAGCAAAAGGC [T25G A48G], 0.291.
Turning to GAGACCGCAACTGAAAAGTTGTTACCACTTGTCGTAAGACACTTTGGACGGGTTGAAGTTCTGCACGTAGAAGCAAAAGGC [T25C T49C], the fraction ligated was found to be 0.757.
On to GAGACCGCAACTGAAAAGTTGTTACCACTTGTCGTAAGACACTTTGGAAGGGTTGAAGTTCTGCACGTAGAAGCAAAAGGC [T25C T49A], for which the fraction ligated stood at 0.777.
GAGACCGCAACTGAAAAGTTGTTACCACTTGTCGTAAGACACTTTGGAGGGGTTGAAGTTCTGCACGTAGAAGCAAAAGGC [T25C T49G]: the fraction ligated came to 0.777.
